{"source": "a protein production outcome set (Wang et al. 2014)", "assay": "label from the status in PepcDB records", "data": [{"sequence": "MDPEETSVYLDYYYATSPNSDIRETHSHVPYTSVFLPVFYTAVFLTGVLGNLVLMGALHFKPGSRRLIDIFIINLAASDFIFLVTLPLWVDKEASLGLWRTGSFLCKGSSYMISVNMHCSVLLLTCMSVDRYLAIVWPVVSRKFRRTDCAYVVCASIWFISCLLGLPTLLSRELTLIDDKPYCAEKKATPIKLIWSLVALIFTFFVPLLSIVTCYCCIARKLCAHYQQSGKHNKKLKKSIKIIFIVVAAFLVSWLPFNTFKFLAIVSGLRQEHYLPSAILQLGMEVSGPLAFANSCVNPFIYYIFDSYIRRAIVHCLCPCLKNYDFGSSTETSDSHLTKALSTFIHAEDFARRRKRSVSL", "values": [{"measurement": "protein production", "value": "failed"}]}, {"sequence": "RTRALYDLGRELASALTASQIIETAVGRLEPLFRAKVMLFIPNSEDRLRAATETGNDADAGVAQWVFDNQQPAGLGTNTLPSNAALYVPLKAPMRVRGVIALLPEDAVHPFLPEQQRLLETCAAQIALALERVHYVEVAQDAIV", "values": [{"measurement": "protein production", "value": "failed"}]}, {"sequence": "MPYKLTLEACTKCGTCAEACTMYLGSGRKKIYSPVYRSDMLRKIYKKHFTLTGKLFGPLIGAKDPTEDDINALAESAYRCTVCRRCALACPFGLDNGLITRETRKIFADLGILEHHHHHH", "values": [{"measurement": "protein production", "value": "not failed"}]}, {"sequence": "SRKRLSAPELRLSLTKGPGNDGASPTQSAPSSPDGSSDLEIDELETPSDSEQLDSGHEFEWEDELPRAEGLGTSETAERLGRGCMWDVTGEDGHHWRVFRMGPREQRVDMTVIEPYKKVLSHGGYHGDGLNAVILFASCYLPRSSIPNYTYVMEHLFRYMVGTLELLVAENYLLVHLSGGTSRAQVPPLSWIRQCYRTLDRRLRKNLRALVVVHATWYVKAFLALLRPFISSKFTRKIRFLDSLGELAQLISLDQVHIPEAVRQLDRDLHGSGGT", "values": [{"measurement": "protein production", "value": "failed"}]}, {"sequence": "MCDYDEPLYLISVVAKILGVHPQTLRQYEKEGLIEPSRTDGKMRLYSQRDMDKIKTILRLTRDMGVNLAGVDIILRLKEKLDELDNLNKELQDALHKHSKNTKTPTKNLNTPTNFYELILFKK", "values": [{"measurement": "protein production", "value": "failed"}]}, {"sequence": "MDLVAWETLSFPVVSAAFGASAFLIAVVGTRMTRAADRLADETGLGEAIFGAVLLGSTTSIAGITTSVTAAVDGLPSLAISNAIGGIAAQTVFLAVADMAYRPANLEHAAASVENLLQGALLSTLLAIPLLGMAGPRLDLFGIHPASVLLVAGYLYGIHLVAEARSTPYWVARQTDKTRQDTGAEGRESAALSTLWLEFVALSLVVGAAGYVIAKTGGQVAARTGLSEGLVGGLFTAVSTSLPELVTSVAAVRRGALTLAVGGIIGGNSFDVLFVAFSDVGYQEGSIYHAMTEQQVFIIALTLLLTGILLMGLLRRERRGAFGIGFESFLALVLYFGAFGLLFV", "values": [{"measurement": "protein production", "value": "failed"}]}, {"sequence": "MSRTTPYRLDDQIGFILRQANQRYAALFANGIGNGLTPTQWAALVRLGETGPCPQNQLGRLTAMDAATIKGVVERLDKRGLIQRSADPDDGRRLLVSLSPAGRAELEAGLAAAREINRQALAPLSLQEQETLRGLLARLI", "values": [{"measurement": "protein production", "value": "not failed"}]}, {"sequence": "MTTPRRALIVIDVQNEYVTGDLPIEYPDVQSSLANIARAMDAARAAGVPVVIVQNFAPAGSPLFARGSNGAELHPVVSERARDHYVEKSLPSAFTGTDLAGWLAARQIDTLTVTGYMTHNCDASTINHAVHSGLAVEFLHDATGSVPYENSAGFASAEEIHRVFSVVLQSRFAAVASTDEWIAAVQGGTPLARGNIYASNQKARARRATA", "values": [{"measurement": "protein production", "value": "not failed"}]}, {"sequence": "MIYYLIGVALFIFMLEQLVPGWKLPKVSTWVARVIFLNIVQVSIALLAGITWNKWMMGHSLLHTSDALPPLLAGFAAYFVNTFVTYWWHRARHANDTLWRLFHQLHHAPQRIEVFTSFYKHPTEMVFNSLLGSFVAYVVMGISIEAGAYYIMFAALGEMFYHSNLRTPHVLGYLFQRPEMHRIHHQRDRHECNYSDFPIWDMLFGTYENPRRIDEPQGFAGDKEQQFVDMLLFRDVHSLPGKTQPAPVLVKPDVR", "values": [{"measurement": "protein production", "value": "failed"}]}, {"sequence": "SNEELETAKEEMQSVNEELQTINSELHGKNELLLQANNDLQNLLDNTQIATIFLDDDLTVRNFTPAAREVFSLRDGDRGRPVTEITSLLSYDKLCEDVRTVQRTLGVVESQLDLEDESATYIMRIRPYRTVANVISGVVITFSNITEQKQQHDHLQVLMGELQHRTNNVFAVILAIARQTVRNS", "values": [{"measurement": "protein production", "value": "failed"}]}, {"sequence": "MNNYVKVHQPLNVDLRTQKTQTKLYTVLERFYVEDRTFESISIKDLCEQARVSRATFYRHHKEIIQVIEVQILRTMQYFSLEFDQIILTKENIQRLILRTIQKNPLLFQVIFWSRAENIFIDVVSGEILRISLLKEVSFSDSKFMPNCFARMILSLAAEIQQSNKDYTNDQLVELIQEAARFLQK", "values": [{"measurement": "protein production", "value": "not failed"}]}, {"sequence": "MAPAPAAEFWEARYRDTGRVWSGRPNELLVQEAGGLAPGTALDLGCGEGADAVWLASRGWRVTGVDISATALERAAGHADGAGVGDRVLWERHELGPSFPEGSFDLVSAHYLQSPVALDQQAVLRAAARAVAPGGTLLVVMHAGWPSWQTEPPFDAAFPTLDGVLAELALPEGEWSVETRRTARRPSVAPDGTEGFREDHVWRLKRAVLEHHHHHH", "values": [{"measurement": "protein production", "value": "not failed"}]}, {"sequence": "MAAPVVVAPAINLQHMDLPEGNEDVAAVLQTSTQRWLNAAEWSILYNNHNLFPESNSFTIPIEVEGLYRVDNRFNQDSNTWRNTSAPSTCKNAINFYNVRIATGLYRFDDDGDIVMDAEVQGGWVLCRKTVRNRGGGVLTFAHYMWVLV", "values": [{"measurement": "protein production", "value": "failed"}]}, {"sequence": "MNSKENLKIVQLSDLHIKKDFNADRLDKVIQKTNEQNPDFIIFSGDLYDNYSQYNENEAVISKLKSLKAKYGKIAIWGNRDYGGGAVKEYANIMAESDFSLLRNENQVFTLDNGKKILFTGLDDALLGNPQFPSLEHHHHHH", "values": [{"measurement": "protein production", "value": "not failed"}]}, {"sequence": "SPMANSGPLCCTICHERLEDTHFVQCPSVPSHKFCFPCSRESIKAQGATGEVYCPSGEKCPLVGSNVPWAFMQGEIATIL", "values": [{"measurement": "protein production", "value": "not failed"}]}, {"sequence": "MIRVLFFIRMTMSRTIQRICLFLFCLPVFGSCMKWDYGEMEDFSVSASGLFITNEGNFQYSNATLSYYDPATCEVENEVFYRANGFKLGDVAQSMVIRDGIGWIVVNNSHVIFAIDINTFKEVGRITGFTSPRYIHFLSDEKAYVTQIWDYRIFIINPKTYEITGYIECPDMDMESGSTEQMVQYGKYVYVNCWSYQNRILKIDTETDKVVDELTIGIQPTSLVMDKYNKMWTITDGGYEGSPYGYEAPSLYRIDAETFTVEKQFKFKLGDWPSEVQLNGTRDTLYWINNDIWRMPVEADRVPVRPFLEFRDTKYYGLTVNPNNGEVYVADAIDYQQQGIVYRYSPQGKLIDEFYVGIIPGAFCWK", "values": [{"measurement": "protein production", "value": "failed"}]}, {"sequence": "MKQWLAAMETSVLVMGALRLFSGSAEIFAALLMLYVNDAKKALFINGMLAFVGPTVLILTMTIGIASVASEISFLKLFFLALGICCIFIALLK", "values": [{"measurement": "protein production", "value": "failed"}]}, {"sequence": "MMEQEIWVRVTRAAAKRKASTAMGIDEDRLNKKRVFLGELLNVSNVNLLSNLN", "values": [{"measurement": "protein production", "value": "failed"}]}, {"sequence": "MTDAAALPGQPRGGVLSGPATRRAVNVLAPNASAMTLDGTNTWIVAEPDSELAVVIDPGPLDDVHLRNVVDTAERAGRRIALTLLTHGHPDHAEGAARFAELTGTNVRALDPALRLGDEGLAPGDVVTVGGLELRVVPTPGHTSDSLCFHLPADRAVLTGDTVLGRGTTVVAHPDGRLGDYLDSLRRLRSLTVDDGVHTVLPGHGPVLDDAQGAVEFYLAHRAHRLAQVETAVENGYRAPAEVVAHVYADVDRSLWPAAELSVRAQMDYLREHGLI", "values": [{"measurement": "protein production", "value": "failed"}]}, {"sequence": "MAPAPAAEFWEARYRDTGRVWSGRPNELLVQEAGGLAPGTALDLGCGEGADAVWLASRGWRVTGVDISATALERAAGHADGAGVGDRVLWERHELGPSFPEGSFDLVSAHYLQSPVALDQQAVLRAAARAVAPGGTLLVVMHAGWPSWQTEPPFDAAFPTLDGVLAELALPEGEWSVETRRTARRPLEHHHHHH", "values": [{"measurement": "protein production", "value": "failed"}]}, {"sequence": "MLPPGMVAAESDFYLRRLWGLPHEDLKSEPRYLATFTVGINQKANIDACVKKFSENFTIVLFHYDGRVTEWDEFEWSKTAIHISVRKQTKWWYAKRFLHPDIVARYDYIFVWDEDLGVEHFNAEEYVKMVKKHGLEISQPGLEPNQGLTWQMTKRRGDMEVHKITEERPGWCSDPHLPPCAAYVEIMAPVFSRNAWRCVWHVIQNDLVHGWGLDFALRRCVEPAHEKIGVVDSQWVVHQSFPSLGNQGEATDGKAPWQGVRDRCKKEWTMFQSRMANAEKDYFKSLQVEGSSNSTATTI", "values": [{"measurement": "protein production", "value": "failed"}]}, {"sequence": "MGDSAPARIDTLEIKLLFAGDIMTHGPQIESAKCEGGRVYDFSSSFDTLASRIGAADLAIGNLETTFAGAPYSGYPTFSSPDAMGEALKNAGFDVLTTANNHTADKGKKGIIRTLDMLDSLGIAHTGSYRDIFDRDKMTPLILEVKGVRIAILAYTYGTNGMPVPAPTWVDPIDTVMIKKDLLRADSLGADYRIVQIHWGIEYRKEPDSEQLELARKLHRYGADAIIGSHPHVVQGSQWLKSDSKTSFVIYSMGNFISNQRKPAATRGGMLLSLTLRKVGDRITTHPDYQYVFVNKRTPQGKRVYRLLPVDPFSSDTLPSLPPEEQRDYKEFAKYYQMIPLVLIEREDNRIRNRLQVSQRAFLEHHHHHH", "values": [{"measurement": "protein production", "value": "failed"}]}, {"sequence": "MVKSKVKKVEKGKEGEEKRSTYVLLKKVLIPILVFGFAIYAFYLRHLTAGKYFPDPDTFYHFEIYKLVLKEGLPRYYPMSDAPFGSLIGEPLGLYLLPAAFYKVVSLFGYNELQAFLLWPPFVGFLGVIAVYLLGRKVLNEWTGLWGAVVLTVSTANFSRTFSGNARGDGPFMALFIFASVAMLYYLKESNKTRKIIYGTLFVLLTVISLGAWNGSPFGLMVLLGFASLQTIILFIFGKLEELKKFVKEFYPAYLAILAFGYALTFPGIVKIGGFIRFAFEVFLGLIFLLVIMLYGGRYLNYSDKKHRFLVVTIIVLLGFGGAYAYVGPKLFRLMGGAYQSTQVYETVQELAKTTIGDVKAYYGVESGNGLIFFLSIPGLLILLTKYLYDLFKKAKSDNETLFALVFYTMSLYLLYLAVRFLFLASYAVALFFGIFIGFSMDVIEKMKENIGIKAALGIVLSLMILVIPFVHAPVLARSARALKNTEIEVTGWEQALKWLRSNTSKYATATSWWDYGYWIESSLLGNRRASADGGHARDRDHILALFLARDGNISEVDFESWELNYFIIYLNDWAKFNAISYLGGAITRKEYNGDENGRGRVTTILLTQAAGNVYVNPYARIVIKVIQQNKTRRIAVNIGQLECSPILSVAFPGNIKIKGSGRCSDGSPFPYVVYLTPSLGVLAYYKVATSNFVKLAFGIPTSSYSEFAEKLFSNFIPVYQYGSVIVYEFRPFAIYKIEDFINGTWREVGKLSPGKHTLRLYISAFGRDIKNATLYVYALNGTKIIKRIKVGEIKYMNHLEEYPIIVNVTLPTAQKYRFILAQKGPVGVLTGPVRVNGKITNPAYIMREGESGRLELKVGVDKEYTADLYLRATFIYLVRKGGKSNEDYDASFEPHMDTFFITKLKEGIKLRPGENEIVVNAEMPKNAISSYKEKLEKEHGDKLIIRGIRVEPVFIVEKEYTMIEVSASAPHHSSE", "values": [{"measurement": "protein production", "value": "failed"}]}, {"sequence": "MPLPADPSPTLSAYAHPERLVTADWLSAHMGAPGLAIVESDEDVLLYDVGHIPGAVKIDWHTDLNDPRVRDYINGEQFAELMDRKGIARDDTVVIYGDKSNWWAAYALWVFTLFGHADVRLLNGGRDLWLAERRETTLDVPTKTCTGYPVVQRNDAPIRAFRDDVLAILGAQPLIDVRSPEEYTGKRTHMPDYPEEGALRAGHIPTAVHIPWGKAADESGRFRSREELERLYDFINPDDQTVVYCRIGERSSHTWFVLTHLLGKADVRNYDGSWTEWGNAVRVPIVAGEEPGVVPVV", "values": [{"measurement": "protein production", "value": "not failed"}]}]}
